This is an account of results in publication PMC8529273.

This assay deals with human ACE-2, Fc-tagged (human) (UniProt Q9BYF1). The assay is described as follows: BLI.
What is called Kd is the concentration at which binding is half-saturated. Read a high Kd as weaker binding. As to “SARS-CoV-2 B.1.351 RBD (K417N_E484K_N501Y) (domain or fragment)”, the Kd was 0.00781 µM.

The substance “SARS-CoV-2 P.1 RBD (K417T_E484K_N501Y) (domain or fragment)” returned a Kd of 0.00564 µM.

The term koff denotes the first-order rate constant of dissociation. A low value points to a long-lived complex. As a reminder, the kon is a measure of how fast the partners come together. With “SARS-CoV-2 RBD E484K (domain or fragment)”, the Kd stood at 0.0156 µM, the koff is 0.00677 s⁻¹ and the kon stood at 433000 M⁻¹ s⁻¹.

“SARS-CoV-2 RBD K417N (domain or fragment)” showed a Kd of 0.077 µM and a koff of 0.0162 s⁻¹.

“SARS-CoV-2 RBD K417T (domain or fragment)” displayed a dissociation constant Kd of 0.0567 µM and a koff of 0.0129 s⁻¹.

In turn, “SARS-CoV-2 receptor-binding domain (RBD) wild type (Wuhan strain) (domain or fragment)” yielded a Kd of 0.0239 µM, a koff of 0.00755 s⁻¹ and an on-rate constant (kon) of 315000 M⁻¹ s⁻¹.
